From publication PMC4798948, “Nucleocapsid assembly in pneumoviruses is regulated by conformational switching of the N protein” (eLife, 2016) come the findings set out here.

Series [1] concerns the molecule itself. Kind of series: electron cryomicroscopy with 2D classification; purified N-RNA preparation plunge-frozen on holey carbon grids; 2D-class averages with RELION.
Series [2] concerns the molecule itself. Kind of series: crystal structure; N-RNA ring (~4 mg/mL), RNA-bound; 100 mM Tris/Bicine pH 8.5, 90 mM NPS, 37.5% MPD/PEG 1000/PEG 3350 (MORPHEUS); 4.2 Å; ten-fold non-crystallographic symmetry.

Values joined by “and” are separate entries in the source; they are usually repeats but may differ in a detail not shown here. Equal entries are not always repeated.

B1: HMPV nucleoprotein N, assembled RNA-bound state (N-RNA rings) (natural protein)
chain: MSLQGIHLSDLSYKHAILKESQYTIKRDVGTTTAVTPSSLQQEITLLCGEILYAKHADYKYAAEIGIQYISTALGSERVQQILRNSGSEVQVVLTRTYSLGKIKNNKGEDLQMLDIHGVEKSWVEEIDKEARKTMATLLKESSGNIPQNQRPSAPDTPIILLCVGALIFTKLASTIEVGLETTVRRANRVLSDALKRYPRMDIPKIARSFYDLFEQKVYHRSLFIEYGKALGSSSTGSKAESLFVNIFMQAYGAGQTMLRWGVIARSSNNIMLGHVSVQAELKQVTEVYDLVREMGPESGLLHLRQSPKAGLLSLANCPNFASVVLGNASGLGIIGMYRGRVPNTELFSAAESYAKSLKESNKINFSSLGLTDEEKEAAEHFLNVSDDSQNDYE
notes: Nucleoprotein N of human metapneumovirus, strain NL1-00 (A1), full-length N gene, 394 residues; each N subunit contacts seven RNA nucleotides; also called subnucleocapsid ring; decameric N-RNA ring; source: Rosetta2 E. coli, purified (Ni-NTA, Superose 6), with RNA from the expression host
Consider B1, for which the stoichiometry N (as a rule, a count of units in the complex or per binding partner) in series [1] is 9 and 11; in series [2] it was 10.
